Data on six molecules can be found in patent publication US7101851 (dated 2006).

“And” between values parts separate entries of the source, which are not always exact repeats. Equal entries are not always repeated. Bridges are numbered along the chain shown (N, C = ends). Where no end group is shown, it is not given here.

As usually defined, the IC50 is the concentration needed to halve the response being measured. Low values mean higher potency, high ones lower potency.

The target in assay [1] is T1, extracellular domain of the alpha subunit of the human FcεRI (aa 1-176) (human, UniProt P12319 26-201).
T1 construct: range 1-176; also called soluble FcεRI; baculovirus-derived FcεRI
T1 sequence (looked up): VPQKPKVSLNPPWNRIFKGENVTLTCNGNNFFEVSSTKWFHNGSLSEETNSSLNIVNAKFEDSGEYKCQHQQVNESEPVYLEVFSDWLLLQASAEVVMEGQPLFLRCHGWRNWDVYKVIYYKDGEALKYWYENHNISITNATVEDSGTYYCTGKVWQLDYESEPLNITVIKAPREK
The assay is described as follows: competitive phage ELISA on FcεRI (FIG. 1). A general note: ELISA stands for enzyme-linked immunosorbent assay.

Assay [2] deals with T2, extracellular domain of the alpha subunit of the human FcεRI (aa 1-176), produced in baculovirus infected … (human, UniProt P12319 26-201, N-linked carbohydrate (NAG on Asn21 seen in the crystal); derivatised with PDEA for thiol coupling to the chip in the biosensor assay).
T2 construct: range 1-176; Residues 1-176 are probably counted without the signal peptide; also called FcεRIα; soluble FcεRI
T2 sequence (looked up): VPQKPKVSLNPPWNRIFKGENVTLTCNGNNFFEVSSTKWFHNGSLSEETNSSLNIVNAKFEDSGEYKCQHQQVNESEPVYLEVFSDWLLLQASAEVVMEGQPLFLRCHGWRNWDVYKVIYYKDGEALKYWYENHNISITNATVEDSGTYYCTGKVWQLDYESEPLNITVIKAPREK
The assay is described as follows: SPR biosensor (BIAcore), peptide over immobilized FcεRIα; Kd (apparent) calculated from kon and koff. On the procedure: *peptide is a dimer. SEQ ID NO: describes each monomer of the dimer. "ava" = amino-valeric acid Several peptides were also tested in a direct-binding assay using a surface plasmon resonance biosensor (Lofas & Johnsson, *J. Chem. Soc. Commun.* 21, 1526–1528 (1990)). FcεRIα, produced in baculovirus infected insect cells, was immobilized by the surface thiol method (BIAcore Methods Manual Supplement 5a, BIAcore, Inc., Piscataway, N.J.). Briefly, receptor was reacted with 2-(2-pyridinyldithio)ethaneamine hydrochloride (PDEA; Natake & Swaisgood, *J. Biochem.* 74, 77–86 (1973)), desalted into 10 mM sodium acetate (pH 4.8) and stored in aliquots at −80° C. Thawed PDEA-receptor was injected over carboxymethyl-dextran (B1 or CM5, BIAcore, Inc.) biosensor chips preactivated with N-ethyl-N'-(3-dimethylaminopropyl)-carbodiimide hydrochloride (EDC) and N-hydroxysuccinimide (NHS), cystamine, and DTT. […] Serial dilutions of peptide in running buffer (phosphate-buffered saline containing 0.05% Tween-20, 0.01% sodium azide) were injected over the immobilized receptor, and the net amount of peptide bound at steady-state was measured as the net change in response (RU) at a point just prior to termination of peptide injection, compared to a running-buffer baseline. […] In the case of IGE134 (SEQ ID NOS:), the value shown indicates the Kd calculated from the rate constants, $kon$ and $koff$. […]

In assay [3] the target is T1, extracellular domain of the alpha …. The assay is described as follows: competitive phage ELISA on FcεRI (FIG. 2). On the procedure:
(§1) Phage ELISA assays were carried out as described (Lowman, 1998, supra), using Nunc Maxisorp™ plates coated with a 2 μg/mL solution of baculovirus-derived FcεRI. Peptide-phage were pre-incubated for 5–10 min with serial dilutions of receptor, then added to the receptor-coated plate. After incubation for 1 h at room temperature, the plates were washed and an anti-phage HRP-conjugated antibody (Pharmacia) was added. After further incubation for 20 min, plates were again washed and developed using the substrate OPD (Sigma). Optical density at 492 nm was read and plotted as a function of FcεRI concentration to determine an $IC50$ of inhibition by each peptide-phage variant.
These libraries were sorted for FcεRI binding as described above. […] The "linker region" (underlined) of the peptide was randomized in this library.

The target in assay [4] is T3, extracellular domain of the alpha subunit of the human FcεRI (aa 1-176), baculovirus-derived (human, UniProt P12319 26-201).
T3 construct: range 1-176; also called soluble FcεRI; baculovirus-derived FcεRI
T3 sequence (looked up): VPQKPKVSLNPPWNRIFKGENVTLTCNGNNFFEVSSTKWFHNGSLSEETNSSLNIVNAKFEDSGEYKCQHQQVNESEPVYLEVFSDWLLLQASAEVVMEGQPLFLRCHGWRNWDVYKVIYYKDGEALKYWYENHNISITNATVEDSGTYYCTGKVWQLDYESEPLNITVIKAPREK
The assay is described as follows: competitive phage ELISA: peptide-phage with soluble FcεRI on FcεRI-coated plate. As for the experimental part: as §1

Assay [5] has as its target T4, alpha subunit of the human FcεRI receptor expressed on cells (human, UniProt P12319 26-257).
T4 construct: whole, on cells; on rat basophil RBL-48 cells in the histamine release assay; also called CHO FcεRI+ cells; cell surface expressed FcεRI
T4 sequence (looked up): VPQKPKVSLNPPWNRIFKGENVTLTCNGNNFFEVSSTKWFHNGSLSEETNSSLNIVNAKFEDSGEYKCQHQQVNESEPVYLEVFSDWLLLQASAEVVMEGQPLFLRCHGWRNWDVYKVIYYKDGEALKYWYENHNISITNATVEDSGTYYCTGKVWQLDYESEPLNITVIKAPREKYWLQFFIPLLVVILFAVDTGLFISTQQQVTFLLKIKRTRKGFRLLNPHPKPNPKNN
The assay is described as follows: inhibition of 125I-IgE binding to CHO cells expressing FcεRI alpha; freshly dissolved peptide (monomer). On the procedure:
To determine the ability of peptides to inhibit IgE binding to FcεRI, a cell-based binding assay was used with radiolabeled IgE. Chinese hamster ovary cells expressing the alpha subunit of the human FcεRI receptor were cultured overnight in Falcon 96 well microtiter plates at a concentration of 5 ×10^4 cells per well. The following day the cells were rinsed three times with PBS and then once with F12/DMEM. Peptide stocks were reconstituted in 100 mM Hepes buffered water, pH 7.2, at a concentration of 5 mg/mL. Working concentrations of the peptide were diluted in assay buffer (see below). 75 uL of a desired concentration of peptide was added to the top row of a separate 96 well microtiter plate and serially diluted 1:3 in 50 uL of the assay buffer (F12/DMEM, 1% BSA, 0.05% NaN_3 and 0.025 mM Hepes pH 7.2). Starting concentrations ranged from 50–500 uM. Next, 50 uL of the diluted peptide was transferred to the 96 microtiter well plate containing a monolayer of CHO FcεRI+ cells. […] Cells were […]

The target in assay [6] is T4, alpha subunit of the human FcεRI …. The assay is described as follows: inhibition of 125I-IgE binding to CHO cells expressing FcεRI alpha; 7-10 days after dissolving, when the homodimer had formed. As for the experimental part:
To determine the ability of peptides to inhibit IgE binding to FcεRI, a cell-based binding assay was used with radiolabeled IgE. Chinese hamster ovary cells expressing the alpha subunit of the human FcεRI receptor were cultured overnight in Falcon 96 well microtiter plates at a concentration of 5 ×10^4 cells per well. The following day the cells were rinsed three times with PBS and then once with F12/DMEM. Peptide stocks were reconstituted in 100 mM Hepes buffered water, pH 7.2, at a concentration of 5 mg/mL. Working concentrations of the peptide were diluted in assay buffer (see below). 75 uL of a desired concentration of peptide was added to the top row of a separate 96 well microtiter plate and serially diluted 1:3 in 50 uL of the assay buffer (F12/DMEM, 1% BSA, 0.05% NaN_3 and 0.025 mM Hepes pH 7.2). Starting concentrations ranged from 50–500 uM. Next, 50 uL of the diluted peptide was transferred to the 96 microtiter well plate containing a monolayer of CHO FcεRI+ cells. […] Cells were
The size of each peptide was confirmed by mass spectrometry. […] This increase over time was not observed with the other peptides.

Assay [7] concerns the target T5, FcεRI-IgG (UniProt P12319 26-205).
T5 construct: extracellular domain; Produced from CHO cells (Genentech); also called FcεRI-Fc; bivalent fusion protein of the extracellular domain of FcεRI and the Fc domain of IgG; not shown: Fc domain of IgG
T5 sequence (looked up): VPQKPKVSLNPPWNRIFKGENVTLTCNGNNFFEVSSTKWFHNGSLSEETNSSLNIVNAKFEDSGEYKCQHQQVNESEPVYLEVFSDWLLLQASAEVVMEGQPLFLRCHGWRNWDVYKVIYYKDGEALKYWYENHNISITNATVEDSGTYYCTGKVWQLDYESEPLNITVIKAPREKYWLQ
The assay is described as follows: competitive phage ELISA; reference of the C-terminal truncation series. As for the experimental part: (§2) This oligonucleotide was annealed with a g3 single stranded DNA phagemid template. The mutagenesis reaction was transformed into XL-1 Blue *E. coli* and plated on LB-carb+ agar plates. Individual colonies were propagated in 5 mL of 2YT broth, tetracycline, carbenicillin and VCSM13 helper phage (Stratagene). Single stranded DNA was isolated from the purified phage particles and sequenced to confirm the insertion of the phage peptide sequence. 25 mL preparations of g3 phage clones were propagated overnight and purified by PEG precipitation. After resuspension of the phage pellet in 1.0 mL of PBS, it was serially diluted 1/3 and incubated with immobilized FcεRI-IgG 2 ug/mL in a 96 well Maxisorp microtiter plate for 1 hour at room temperature. The wells were washed 10× with PBST then incubated with 100 uL of anti M13 phage HRP as described above. An OD(492) value corresponding to less than 50% binding was selected and the purified phage clones were diluted to yield this normalized level of signal. […] The mixture was then transferred to 96 well microtiter dishes containing immobilized FcεRI-IgG. After a 1-hour incubation period, the plates were washed 10 times, incubated with anti M13-HRP conjugated antibody and developed with OPD as described above.
(§3) In addition, stepwise N-terminal and C-terminal truncations of the peptide sequence were constructed. […]

Assay [8] deals with T5, FcεRI-IgG. As to the kind of experiment: competitive phage ELISA; reference of the N-terminal truncation series. On the procedure: as §2, §3
The target in assay [9] is T5, FcεRI-IgG. As to the kind of experiment: competitive phage ELISA: g3 peptide-phage on immobilized FcεRI-IgG, soluble FcεRI-IgG titrated. As for the experimental part:
as §2
In addition, stepwise N-terminal and C-terminal truncations of the peptide sequence were constructed. All constructs were made by designing oligonucleotides corresponding to the desired substitution or truncation, with an additional 18 bp of DNA overlapping the peptide or g3 phage DNA sequence. The phage clones were propagated overnight following infection in XL-1 Blue *E. coli*. Purified phage preparations were titered and assayed for binding to immobilized receptor. FcεRI-IgG competition assays were performed as described above.

B1: IGE122-phage VQCPHFCYVGGKALCPDVCYV (peptide)
peptide: VQCPHFCYVGGKALCPDVCYV
notes: not shown: M13 g3p display
Consider B1, for which the binding result in [1] is given as “binds”.

B2: IGE134 (peptide)
peptide: VQCPHFCYELDYELCPDVCYV-NH2
modifications: disulfide 7-15, 3-19
notes: also called peptide
For B2, the Kd in assay [2] was 32 nM.

B3: phage clone IVCPRLCYELDYELCPDVCYV from the IGE120-phage library (NBO895-619D) (peptide)
peptide: IVCPRLCYELDYELCPDVCYV
notes: not shown: M13 g3p display
Take B3: in assay [3], the “fold improved affinity over IGE120” value is ~2 fold.

B4: IGE120-phage (IVCPRLCYVGGKALCPDVCYV displayed as a fusion to g3p of bacteriophage M13) (peptide)
peptide: IVCPRLCYVGGKALCPDVCYVGGGSGGGGSGSGDY
notes: not shown: g3p of bacteriophage M13, continuing after residue 257 of the mature protein
B4: the “Relative IC50” value in assay [4] is 1 fold, relative to IGE120-phage.

B5: IGE037 (peptide)
peptide: ALCPAVCYV-NH2
modifications: disulfide 3-7 (inferred); also: reshuffles over 3-12 days into disulfide-linked homodimer, held to be active form
notes: Made as a cyclic monomer
In the case of B5, the figures for the half-inhibitory concentration (IC50) in assay [5] and in [6] were ~300000 nM and 25000 nM, respectively.

B6: g3c.42 peptide-phage (peptide)
peptide: NLPRCTEGPWGWVCMAAD
modifications: not fully specified (bridges); cysteine pairing not given here
notes: Monovalent g3p phage display; not shown: fused to M13 gene-3 protein (g3p) on phage
Consider B6, for which the “Relative (IC50) (fold weaker)” value in the assay with FcεRI-IgG [7] and with FcεRI-IgG [8] was 1 fold each time. Also, the IC50 in the assay with FcεRI-IgG [9] is 5.6 nM and 3.1 nM.
